From patent US20180087039A1
No end group written: not given here.

Biological target: fibrinogen (free fibrinogen in rat plasma) (rat) (UniProt P06399)
Experiment: cell-based or functional assay

RTLAFVRFKKKAAVV-{K(lauroyl)-NH2} (also: self-assembled nanofiber) [RTL PA nanofiber (…(K)-C12 peptide amphiphile)]
free fibrinogen level in plasma after incubation ex vivo with RTL PA (80 µM): < 36 mg/dL
